Measurements taken from PMC9079088, “FBXO2 targets glycosylated SUN2 for ubiquitination and degradation to promote ovarian cancer development” (Cell Death & Disease, 2022).

Target: T1, HA-SUN2 (human (cDNA from 293T or A2780 cells), UniProt Q9UH99 1-717, N-glycosylation (sites not given))
T1 construct: SAD1/UNC84 domain protein-2 (SUN2), cloned from cDNAs of 293T or A2780 cells; also called SAD1/UNC84 domain protein-2; source: HEK293T, transiently transfected; immunoprecipitated with anti-HA resin and eluted with HA peptide, or in lysate
T1 sequence (looked up): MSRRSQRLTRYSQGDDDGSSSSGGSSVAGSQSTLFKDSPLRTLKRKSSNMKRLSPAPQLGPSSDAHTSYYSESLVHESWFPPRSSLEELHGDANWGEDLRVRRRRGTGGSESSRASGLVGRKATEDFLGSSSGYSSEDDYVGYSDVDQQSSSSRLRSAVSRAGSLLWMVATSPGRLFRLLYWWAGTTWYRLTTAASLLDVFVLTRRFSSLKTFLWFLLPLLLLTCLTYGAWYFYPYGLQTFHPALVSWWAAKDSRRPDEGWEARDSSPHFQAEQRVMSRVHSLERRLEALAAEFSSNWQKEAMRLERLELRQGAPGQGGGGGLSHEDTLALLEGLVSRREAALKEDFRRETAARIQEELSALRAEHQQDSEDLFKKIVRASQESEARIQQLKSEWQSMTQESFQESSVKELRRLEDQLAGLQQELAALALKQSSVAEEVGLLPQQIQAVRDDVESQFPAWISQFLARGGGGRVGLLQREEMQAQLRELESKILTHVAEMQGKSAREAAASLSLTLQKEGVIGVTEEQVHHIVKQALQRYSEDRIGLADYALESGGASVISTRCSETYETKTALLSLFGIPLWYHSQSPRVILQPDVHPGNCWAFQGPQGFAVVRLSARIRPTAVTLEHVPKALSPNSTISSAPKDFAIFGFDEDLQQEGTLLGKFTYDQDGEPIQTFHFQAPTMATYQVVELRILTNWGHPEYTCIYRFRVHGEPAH
Assay: pull-down; GST or GST-FBXO2 incubated with HA-SUN2 (anti-HA resin, eluted with HA peptide) in PB buffer (20 mM HEPES pH 7.5, 130 mM KCl, 5 mM MgCl2, 1 mM DTT, 0.5 mM EDTA, 0.05% NP40) at 30 °C for 2 h, then glutathione beads; the legend speaks of lysed cells
Conditions: both partners purified

B1: GST-FBXO2 WT (natural protein, human, UniProt Q9UK22 1-296, looked up)
chain: MDGDGDPESVGQPEEASPEEQPEEASAEEERPEDQQEEEAAAAAAYLDELPEPLLLRVLAALPAAELVQACRLVCLRWKELVDGAPLWLLKCQQEGLVPEGGVEEERDHWQQFYFLSKRRRNLLRNPCGEEDLEGWCDVEHGGDGWRVEELPGDSGVEFTHDESVKKYFASSFEWCRKAQVIDLQAEGYWEELLDTTQPAIVVKDWYSGRSDAGCLYELTVKLLSEHENVLAEFSSGQVAVPQDSDGGGWMEISHTFTDYGPGVRFVRFEHGGQDSVYWKGWFGARVTNSSVWVEP
notes: F-box protein FBXO2, human; also called GST tagged FBXO2
  binding result: binds
